Results on 2 substances are retold here after article doi:10.1101/2023.01.26.525744.

pKd: −log10 of the molar value.

Holding throughout (assay): NMR titration
The target in assay [1] is paxillin LIM2/3 tandem domain (aa380-499) (human) (UniProt P49023).
Assay [2] has as its target cytoplasmic tail of human integrin β1 (aa758-798) (human) (UniProt P05556).
For assay [3], the target named is cytoplasmic tail of human integrin β3 (aa748-788) (human) (UniProt P05106).

As a reminder, the pKd is −log10 of the Kd, conventionally taken in molar units.

Chain of UniProt P05556 (P05556 758-798): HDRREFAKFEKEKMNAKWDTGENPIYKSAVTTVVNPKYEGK

“cytoplasmic tail of human integrin β3 (aa748-788) (from UniProt P05106 748-788) (domain or fragment)”: in assay [1], the pKd was 3.27.

For “paxillin LIM2/3 tandem domain (aa380-499) (from UniProt P49023-2 380-499) (domain or fragment)”, the pKd in assay [2] was 4.28; in assay [3] it was 3.28.
